Reference: patent US20140363833

T1: fluorophore-labeled thrombin substrate (fPR-x-S extended with glycine spacers and a C-terminal cysteine) on nanoworms
T1 sequence: GGFPRSGGGC

T2: D-isomer of the MMP9 substrate PLGVRGK on nanoworms
T2 sequence: PLGVRGK

T3: fluorescein-labeled thrombin-cleavable substrate PLGLRSW on nanoworms
T3 sequence: PLGLRSW

T4: D-stereoisomer of the thrombin substrate PLGLRSW on nanoworms
T4 sequence: PLGLRSW

T5: fluorophore-labeled thrombin substrate (fPR-x-S extended with glycine spacers and a C-terminal cysteine) on nanoworms (not fully specified)
T5 chain: GGFPRSGGGC

B1: FVIIa (Haematologic Technologies) (protein)
chain: ANAFLEELRPGSLERECKEEQCSFEEAREIFKDAERTKLFWISYSDGDQCASSPCQNGGSCKDQLQSYICFCLPAFEGRNCETHKDDQLICVNENGGCEQYCSDHTGTKRSCRCHEGYSLLADGVSCTPTVEYPCGKIPILEKRNASKPQGRIVGGKVCPKGECPWQVLLLVNGAQLCGGTLINTIWVVSAAHCFDKIKNWRNLIAVLGEHDLSEHDGDEQSRRVAQVIIPSTYVPGTTNHDIALLRLHQPVVLTDHVVPLCLPERTFSERTLAFVRFSLVSGWGQLLDRGATALELMVLNVPRLMTQDCLQQSRKVGDSPNITEYMFCAGYSDGSKDSCKGDSGGPHATHYRGTWYLTGIVSWGQGCATVGHFGVYTRVSQYIEWLQKLMRSEPRPGVLLRAPFP

Assays:
[1] = tested on: T1, fluorophore-labeled thrombin substrate (fPR-x-S extended with glycine spacers and a C-terminal cysteine) on nanoworms
[2] = tested on: T2, D-isomer of the MMP9 substrate PLGVRGK on nanoworms
[3] = tested on: T3, fluorescein-labeled thrombin-cleavable substrate PLGLRSW on nanoworms
[4] = tested on: T4, D-stereoisomer of the thrombin substrate PLGLRSW on nanoworms
[5] = biological target: T5, fluorophore-labeled thrombin substrate …

Molecule	sample fluorescence (fluorogenic NW protease assay) [1]	other results
FIXa (Haematologic Technologies)	negligible proteolysis was observed from the panel of non-cognate proteases	–
FXIa (Haematologic Technologies)	negligible proteolysis was observed from the panel of non-cognate proteases	–
FXa (Haematologic Technologies)	negligible proteolysis was observed from the panel of non-cognate proteases	–
activated protein C (Haematologic Technologies)	negligible proteolysis was observed from the panel of non-cognate proteases	–
recombinant MMP9 (R&D Systems)	–	sample fluorescence (fluorogenic NW protease assay) [2]: no activity when the broad-spectrum MMP inhibitor Marimastat or D-isomer substrates were used
recombinant thrombin (Haematologic Technologies)	–	sample fluorescence (fluorogenic NW protease assay) [3]: observed a rapid increase in sample fluorescence as cleaved peptide fragments released into solution fluoresced freely; sample fluorescence (fluorogenic NW protease assay) [4]: No increase in fluorescence was observed in the presence of Argatroban, a direct thrombin inhibitor, or when the substrate was synthesized with protease-resistant D-stereoisomers
B1	–	sample fluorescence (fluorogenic NW protease assay) [5]: negligible proteolysis was observed from the panel of non-cognate proteases
